T1: human IL-18BP (human, UniProt O95998 31-194)
T1 construct: UniProt printed as 095998; also called hIL-18BP
T1 sequence: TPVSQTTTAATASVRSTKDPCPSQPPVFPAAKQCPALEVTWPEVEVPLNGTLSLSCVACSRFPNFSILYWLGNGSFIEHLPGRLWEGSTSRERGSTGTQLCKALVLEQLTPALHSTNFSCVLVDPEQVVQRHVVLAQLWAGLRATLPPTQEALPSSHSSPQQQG

B1: SA301a HC-S54V (antibody, name in Kabat numbering, V domains shown)
VH: QVQLQESGPGLVKPSQTLSLTCTVSGYSITSDYNSHWIRQPPGKGLEWIGYIHYVGSTNYNPSLKSRVTISRDTSKNQFSLKLSSVTAADTAVYYCARNYGSIYVNYFDYWGQGTLVTVSS
VL: EIVLTQSPATLSLSPGERATLSCSASSSVSYMYWYQQKPGQAPRPLIYRTSNLASGIPARFSGSGSGTDFTLTISSLEPEDFAVYYCQQYHSYPTFGGGTKVEIK
notes: IgG1 kappa
B2: SA301a HC-Y53F (antibody, name in Kabat numbering, V domains shown)
VH: QVQLQESGPGLVKPSQTLSLTCTVSGYSITSDYNSHWIRQPPGKGLEWIGYIHFSGSTNYNPSLKSRVTISRDTSKNQFSLKLSSVTAADTAVYYCARNYGSIYVNYFDYWGQGTLVTVSS
VL: EIVLTQSPATLSLSPGERATLSCSASSSVSYMYWYQQKPGQAPRPLIYRTSNLASGIPARFSGSGSGTDFTLTISSLEPEDFAVYYCQQYHSYPTFGGGTKVEIK
notes: IgG1 kappa
B3: SA301a HC-Y53H (antibody, name in Kabat numbering, V domains shown)
VH: QVQLQESGPGLVKPSQTLSLTCTVSGYSITSDYNSHWIRQPPGKGLEWIGYIHHSGSTNYNPSLKSRVTISRDTSKNQFSLKLSSVTAADTAVYYCARNYGSIYVNYFDYWGQGTLVTVSS
VL: EIVLTQSPATLSLSPGERATLSCSASSSVSYMYWYQQKPGQAPRPLIYRTSNLASGIPARFSGSGSGTDFTLTISSLEPEDFAVYYCQQYHSYPTFGGGTKVEIK
notes: IgG1 kappa
B4: SA301a HC-Y53G (antibody, name in Kabat numbering, V domains shown)
VH: QVQLQESGPGLVKPSQTLSLTCTVSGYSITSDYNSHWIRQPPGKGLEWIGYIHGSGSTNYNPSLKSRVTISRDTSKNQFSLKLSSVTAADTAVYYCARNYGSIYVNYFDYWGQGTLVTVSS
VL: EIVLTQSPATLSLSPGERATLSCSASSSVSYMYWYQQKPGQAPRPLIYRTSNLASGIPARFSGSGSGTDFTLTISSLEPEDFAVYYCQQYHSYPTFGGGTKVEIK
notes: IgG1 kappa
B5: SA301a HC-Y53A (antibody, name in Kabat numbering, V domains shown)
VH: QVQLQESGPGLVKPSQTLSLTCTVSGYSITSDYNSHWIRQPPGKGLEWIGYIHASGSTNYNPSLKSRVTISRDTSKNQFSLKLSSVTAADTAVYYCARNYGSIYVNYFDYWGQGTLVTVSS
VL: EIVLTQSPATLSLSPGERATLSCSASSSVSYMYWYQQKPGQAPRPLIYRTSNLASGIPARFSGSGSGTDFTLTISSLEPEDFAVYYCQQYHSYPTFGGGTKVEIK
notes: IgG1 kappa
B6: SA301a HC-Y53D (antibody, name in Kabat numbering, V domains shown)
VH: QVQLQESGPGLVKPSQTLSLTCTVSGYSITSDYNSHWIRQPPGKGLEWIGYIHDSGSTNYNPSLKSRVTISRDTSKNQFSLKLSSVTAADTAVYYCARNYGSIYVNYFDYWGQGTLVTVSS
VL: EIVLTQSPATLSLSPGERATLSCSASSSVSYMYWYQQKPGQAPRPLIYRTSNLASGIPARFSGSGSGTDFTLTISSLEPEDFAVYYCQQYHSYPTFGGGTKVEIK
notes: IgG1 kappa
B7: SA301a HC-Y53E (antibody, name in Kabat numbering, V domains shown)
VH: QVQLQESGPGLVKPSQTLSLTCTVSGYSITSDYNSHWIRQPPGKGLEWIGYIHESGSTNYNPSLKSRVTISRDTSKNQFSLKLSSVTAADTAVYYCARNYGSIYVNYFDYWGQGTLVTVSS
VL: EIVLTQSPATLSLSPGERATLSCSASSSVSYMYWYQQKPGQAPRPLIYRTSNLASGIPARFSGSGSGTDFTLTISSLEPEDFAVYYCQQYHSYPTFGGGTKVEIK
notes: IgG1 kappa
B8: SA301a HC-S54Y (antibody, name in Kabat numbering, V domains shown)
VH: QVQLQESGPGLVKPSQTLSLTCTVSGYSITSDYNSHWIRQPPGKGLEWIGYIHYYGSTNYNPSLKSRVTISRDTSKNQFSLKLSSVTAADTAVYYCARNYGSIYVNYFDYWGQGTLVTVSS
VL: EIVLTQSPATLSLSPGERATLSCSASSSVSYMYWYQQKPGQAPRPLIYRTSNLASGIPARFSGSGSGTDFTLTISSLEPEDFAVYYCQQYHSYPTFGGGTKVEIK
notes: IgG1 kappa
B9: SA301a HC-Y53I (antibody, name in Kabat numbering, V domains shown)
VH: QVQLQESGPGLVKPSQTLSLTCTVSGYSITSDYNSHWIRQPPGKGLEWIGYIHISGSTNYNPSLKSRVTISRDTSKNQFSLKLSSVTAADTAVYYCARNYGSIYVNYFDYWGQGTLVTVSS
VL: EIVLTQSPATLSLSPGERATLSCSASSSVSYMYWYQQKPGQAPRPLIYRTSNLASGIPARFSGSGSGTDFTLTISSLEPEDFAVYYCQQYHSYPTFGGGTKVEIK
notes: IgG1 kappa

What follows are binders tested against T1, human IL-18BP (assay: BLI, apparent KD).

Which Kd does the source give for B1 here?
Its Kd is 0.55 nM.

B2 was tested. Which Kd did it give?
Its Kd is 0.39 nM.

B3 was tested. Which Kd did it give?
Its Kd is 2.41 nM.

For B4, which Kd is on record?
The Kd was 1.86 nM.

How did the Kd turn out when B5 was run?
The Kd was 2.6 nM.

With B6 as the binder, how does the Kd read?
The Kd was 3.2 nM.

Which Kd does the source give for B7 here?
Its Kd is 5.06 nM.

Which Kd does the source give for B8 here?
Its Kd is 4.66 nM.

How did the Kd turn out when B9 was run?
Its Kd is 1.87 nM.

Source: US20250368745A1 (published 2025)
